Assays:
[1] = molecular target: heat shock protein 60 (Hsp60) on human ileocecal epithelial HCT-8 cells (human (endogenous in HCT-8)) (UniProt P10809); test: adhesion of protein-coated fluospheres to cell monolayers; as the fluosphere assay on HCT-8 monolayers, but protein concentrations adjusted to have an equal number of molecules of each protein before immobilising on beads
[2] = molecular target: heat shock protein 60 (Hsp60) on human ileocecal epithelial HCT-8 cells (human (endogenous in HCT-8)) (UniProt P10809); test: adhesion of protein-coated fluospheres to cell monolayers; sulphate-modified fluospheres (1.0 µm) coated with 160 µg/mL of each purified protein (average bound 140 µg/ml) or 0.1% BSA, added to confluent HCT-8 monolayers (cells to spheres about 1:100), 2 h at 37°C, washed five times, read at 485/538 nm; also after pretreatment of cells with anti-Hsp60 MAb (1 µg/well, 1 h)
[3] = molecular target: LAP subdomain N2 (Gly224–Gly411) (Listeria monocytogenes (strain F4244)); test: ELISA; called immunofluorescence assay in microtiter plates: LAP proteins immobilised at 62.5–500 ng/100 µL (0.05 M sodium carbonate, pH 9.6) in Immulon 4HBX plates; Hsp60 100 µL of 2.4 µg/mL, RT 1.5 h; anti-Hsp60, HRP anti-mouse, fluorescent substrate Super Red; controls subtracted; KD from the 1-site binding equation (Prism 3)
[4] = molecular target: Listeria adhesion protein (LAP), full-length (Listeria monocytogenes); test: as above

Substance | mean fluorescence unit (fluorescence unit) [1] | mean fluorescence unit (fluorescence unit) [2] | Kd [3] | Kd [4]
Listeria adhesion protein (LAP), full-length (natural protein) | 1380 | 999 | – | –
LAP subdomain N2 (Gly224–Gly411) (domain or fragment) | 1360 | 1400 | – | –
heat shock protein 60 (Hsp60), purified (from UniProt P10809 27-573) (natural protein) | – | – | 9.51 nM | 7.17 nM
